The results in this text go back to patent US20260001933A1 (PETMEDIX, published 2026).

Test [1] deals with T1, Human nerve growth factor (NGF) (human, UniProt P01138 122-241).
T1 construct: Bought reagent; also called human NGF; hNGF
The test is described as follows: SPR, kinetic fit (caption of panel 7d: hNGF; BedinvetmAb; 1:1 binding); the set-up for Bedinvetmab is not described in the text; column head 'Kinetics affinity KD (nM)'. For orientation: In SPR one partner is held on a chip, and binding of the other changes the refractive index at the surface.

Test [2] addresses T1, Human nerve growth factor (NGF). The test is described as follows: cell-based or functional assay.
The target in test [3] is T2, Murine FcRn-B2M recombinant protein (Immunitrack) (murine, UniProt Q61559 22-297; P01887 21-119, limits assumed).
T2 construct: Bought reagent; also called murine neonatal receptor
T2 sequence (looked up): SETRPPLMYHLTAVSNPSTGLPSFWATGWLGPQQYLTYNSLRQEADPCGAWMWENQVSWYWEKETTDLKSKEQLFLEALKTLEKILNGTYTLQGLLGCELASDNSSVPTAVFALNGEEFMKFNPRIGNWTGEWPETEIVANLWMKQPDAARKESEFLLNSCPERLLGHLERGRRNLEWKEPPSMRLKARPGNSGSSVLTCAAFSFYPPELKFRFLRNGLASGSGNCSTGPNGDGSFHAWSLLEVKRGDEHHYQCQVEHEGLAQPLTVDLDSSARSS
T2 sequence (b2m, looked up): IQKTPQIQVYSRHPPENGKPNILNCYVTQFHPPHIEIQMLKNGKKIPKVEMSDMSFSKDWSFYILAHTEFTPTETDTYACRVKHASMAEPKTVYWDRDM
Put plainly: SPR (Biacore 8K), murine FcRn-B2M amine-coupled on CM5, running buffer pH 6, fusion protein as analyte; steady state affinity.

Test [4] concerns the target T3, Protein A (Sensor Chip Protein A, Cytiva) (UniProt P38507 212-269).
T3 construct: Commercial chip ligand; It may be a recombinant variant of staphylococcal protein A
Put plainly: SPR (Biacore 8K), Sensor Chip Protein A, fusion protein produced in CHO-s injected over the chip, 1:1 binding kinetic fit; column head 'Kinetics affinity KD (nM)'.

The target in test [5] is T1, Human nerve growth factor (NGF). The test is described as follows: SPR (Biacore 8K), PetML119 captured on Protein A chip, human NGF as analyte, multi-cycle kinetics; column head 'Kinetics affinity KD (nM)'.
For test [6], the target named is T3, Protein A (Sensor Chip Protein A, …). The test is described as follows: SPR (Biacore 8K), Sensor Chip Protein A, fusion protein produced in CHOZN injected over the chip, 1:1 binding kinetic fit; column head 'Kinetics affinity KD (nM)'.
The target in test [7] is T4, Canine FcRn-B2M recombinant protein (Immunitrack) (canine, UniProt A0A8I3PFR8 25-296; P19341 1-42).
T4 chain 1: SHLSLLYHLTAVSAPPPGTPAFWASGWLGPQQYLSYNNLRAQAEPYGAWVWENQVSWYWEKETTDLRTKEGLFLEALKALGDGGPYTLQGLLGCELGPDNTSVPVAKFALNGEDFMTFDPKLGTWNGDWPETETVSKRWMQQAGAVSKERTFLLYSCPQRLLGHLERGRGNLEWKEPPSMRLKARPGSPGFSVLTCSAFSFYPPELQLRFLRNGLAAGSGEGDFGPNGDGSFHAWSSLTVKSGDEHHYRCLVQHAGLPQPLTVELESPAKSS
T4 chain 2: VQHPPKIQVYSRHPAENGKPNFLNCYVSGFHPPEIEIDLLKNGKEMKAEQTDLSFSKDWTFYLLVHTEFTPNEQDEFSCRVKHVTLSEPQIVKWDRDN
Put plainly: SPR (Biacore 8K), canine FcRn-B2M amine-coupled on CM5, running buffer pH 6, fusion protein as analyte; steady state affinity.

The target of test [8] is T5, Rat nerve growth factor (NGF) (rat, UniProt P25427 122-241).
T5 construct: Bought reagent; also called rat NGF
Put plainly: SPR (Biacore 8K), PetML119 captured on Protein A chip, rat NGF as analyte, multi-cycle kinetics; column head 'Kinetics affinity KD (nM)'.

Test [9] has as its target T4, Canine FcRn-B2M recombinant protein …. Put plainly: SPR (Biacore 8K), canine FcRn-B2M amine-coupled on CM5, running buffer pH 6, fusion protein as analyte; steady state affinity.
Test [10] has as its target T2, Murine FcRn-B2M recombinant protein …. Put plainly: SPR (Biacore 8K), murine FcRn-B2M amine-coupled on CM5, running buffer pH 6, fusion protein as analyte; steady state affinity. This is another data set of the same source.

Like-named read-outs stand apart in the source and are kept apart here.

B1: Bedinvetmab (antibody, V domains shown)
VH: EVQLVESGGDLVKPGGSLRLSCVASGFTFSSHGMHWVRQSPGKGLQWVAVINSGGSSTYYTDAVKGRFTISRDNAKNTVYLQMNSLRAEDTAMYYCAKESVGGWEQLVGPHFDYWGQGTLVIVSS
VL: QSVLTQPTSVSGSLGQRVTISCSGSTNNIGILGASWYQLFPGKAPKLLVYGNGNRPSGVPDRFSGADSGDSVTLTITGLQAEDEADYYCQSFDTTLGAHVFGGGTHLTVL
Take B1: binding in [1] was put at a Kd of 0.073 nM. For the same molecule, the “IC50 (nM), inhibition of NGF-dependent TF-1 cell proliferation” value in [2] is 1.65 nM.

B2: PetML119 (canine p75NTR ECD-canine IgGB wt Fc protein fusion) (Fc fusion)
chain: KEACPTGLYTHSGECCKACNLGEGVAQPCGANQTVCEPCLDSVTFSDVVSATEPCKPCTECVGLQSMSAPCVEADDAVCRCAYGYYQDETTGRCEACRVCEAGSGLVFSCQDRQNTVCEECPDGTYSDEANHVDPCLPCTVCEDTERQLRECTRWADAECEEIPGGGGRENGRVPRPPDCPKCPAPEMLGGPSVFIFPPKPKDTLLIARTPEVTCVVVDLDPEDPEVQISWFVDGKQMQTAKTQPREEQFNGTYRVVSVLPIGHQDWLKGKQFTCKVNNKALPSPIERTISKARGQAHQPSVYVLPPSREELSKNTVSLTCLIKDFFPPDIDVEWQSNGQQEPESKYRTTPPQLDEDGSYFLYSKLSVDKSRWQRGDTFICAVMHEALHNHYTQKSLSHSPGK
notes: Glycosylated, made in CHO cells; also called Fc-Bwt; Sample 1
In the case of B2, the Kd (commonly a measure of binding affinity in units of concentration) in test [3] was determined as 2000 nM; in test [4] it was 2.8 nM; in [5], 0.12 nM; in test [6], 1.3 nM; in test [7], 6000 nM; in test [8] it was 0.12 nM. Besides, in [2], the “IC50 (nM), inhibition of NGF-dependent TF-1 cell proliferation” value worked out at 15.2 nM.

B3: PetML122 (canine p75NTR ECD-canine Fc YTE protein fusion) (Fc fusion)
chain: KEACPTGLYTHSGECCKACNLGEGVAQPCGANQTVCEPCLDSVTFSDVVSATEPCKPCTECVGLQSMSAPCVEADDAVCRCAYGYYQDETTGRCEACRVCEAGSGLVFSCQDRQNTVCEECPDGTYSDEANHVDPCLPCTVCEDTERQLRECTRWADAECEEIPGGGGRENGRVPRPPDCPKCPAPEMLGGPSVFIFPPKPKDTLYITREPEVTCVVVDLDPEDPEVQISWFVDGKQMQTAKTQPREEQFNGTYRVVSVLPIGHQDWLKGKQFTCKVNNKALPSPIERTISKARGQAHQPSVYVLPPSREELSKNTVSLTCLIKDFFPPDIDVEWQSNGQQEPESKYRTTPPQLDEDGSYFLYSKLSVDKSRWQRGDTFICAVMHEALHNHYTQKSLSHSPGK
notes: also called Fc-B-YTE; Sample 2
For B3, the dissociation constant Kd in test [6] is 15 nM; in test [9], 400 nM; in test [10] it was 90 nM.
